# Results reported in patent publication US12448434B2, “Antibodies specifically recognizing Pseudomonas PcrV and uses thereof” (priority 2019, dated 2025).
# Positions count from the first letter of the chain named.
# B1: 7B1: optimized anti-PcrV mAb clone; VH SEQ ID NO: 62, VL SEQ ID NO: 67 (antibody, V domains shown)
# VH: EVQLLESGGGLVQPGGSLRLSCTASGFTFSDNYMSWVRQAPGKGLDWVSVISESGGSTNYADSVKGRFSTSRDNSKSTLYLDMNSLRAEDTAIYYCAKGRFSTLSSHFFRAVYGMDVWGQGTAVTVSS
# VL: DIQLTQSPSSLSASVGDRVTITCRASQGISSYLAWYQQKPGKAPKLLIYAASTLQSGVPSRFSGSGSGTDFTLTISSLQPEDFATYYCQQLSSYPLTFGGGTKVEIK
# B2: 8C1: optimized anti-PcrV mAb clone; VH SEQ ID NO: 51, VL SEQ ID NO: 67 (antibody, V domains shown)
# VH: B1 VH with Y33H, V50G, L104N, S106A
# VL: B1 VL
# B3: 7C1: optimized anti-PcrV mAb clone; VH SEQ ID NO: 52, VL SEQ ID NO: 65 (antibody, V domains shown)
# VH: B1 VH with Y33H, V50G, L104S, F109Y
# VL: B1 VL with T97S
# System: PcrV-negative A549 cells
# Test: Cross-reactivity to PcrV-negative A549 cells by FACS
# Assay type: cell-based, human
# Settings: FIGS. 4A-4E, compared with no antibody and V2L2-MD
# Procedure: Cross-reactivity to A549 cells: Using FACS, parental antibody 13-42, optimized antibodies 7C1, 7B1, 8C1, 6D10 as well as V2L2-MD were tested for cross-reactivity to PcrV-negative A549 cells.
row,Molecule,binding to PcrV-negative A549 cells
1,B1,similarly low levels of A549 binding
2,B2,similarly low levels of A549 binding
3,B3,similarly low levels of A549 binding

# System: P. aeruginosa strains O6-57/66, O11-PA103, O1-52/66 and O16-177/81
# Test: A549 cell lysis inhibition, various strains (average)
# Assay type: cell-based, Pseudomonas aeruginosa
# Settings: FIGS. 6A-6D
# Procedure: To assay for ability to inhibit cytotoxicity and cell lysis caused by P. aeruginosa, the candidate anti-PcrV antibodies were added to human bronchoepithelial cell line A549 or human histiocytic lymphoma cell line U937 seeded in white 96-well plates (Nunc Nunclon Delta) in DMEM plus 10% fetal bovine serum. Log-phase strain PA103(O11) P. aeruginosa was added at a multiplicity of infection (MOI) of 10 and incubated for 2 h at 37° C. and 5% CO2, followed by 20 minutes of equilibration at room temperature. Lactate dehydrogenase (LDH) released from lysed cells was quantified using the CytoTox-ONE kit (Promega), to assay membrane integrity. The relative amount of lysis inhibition was plotted accordingly. IC50 values for the antibodies were also determined.
# The optimized anti-PcrV mAb clones 7C1, 8C1, and 7B1 were analyzed for their abilities to inhibit A549 cell lysis by various strains of P. aeruginosa, namely strains O6-57/66, O11-PA103, O1-52/66 and O16-177/81, as compared to the parental 13-42 mAb. A549 cell lysis inhibition assay was performed as described in Example 2.
row,Molecule,efficacy in inhibiting A549 lysis by four strains relative to parental 13-42 mAb
1,B1,comparable efficacy in inhibiting A549 lysis
2,B2,comparable efficacy in inhibiting A549 lysis
3,B3,comparable efficacy in inhibiting A549 lysis

# System: BV particles
# Test: Cross-reactivity to BV particles by ELISA
# Assay type: binding
# Settings: FIG. 3
# Procedure: Cross-reactivity to BV particles: Using ELISA, optimized antibodies 7C1, 7B1, 8C1, 6D10, and reference antibodies V2L2-MD and Mab166 were tested for cross-reactivity to BV particles according to the method described previously (See Hötzel I, et al, 2012, mAbs 4:6, 753-760).
row,Molecule,non-specific binding to BV particles
1,B1,low levels of non-specific binding
2,B2,low levels of non-specific binding
3,B3,low levels of non-specific binding

# System: not given
# Test: not given
# Settings: rat, in vivo, iv
# Procedure: Pharmacokinetic profile in rat: 40 healthy adult rats (about 0.2 kg by weight) were equally into two groups, where each group registered similar average weight. One group was injected intravenously with 30 mg/kg of V2L2-MD, 7C1, 7B1, 8C1 or 6D10 and the other group was injected intravenously with 3 mg/kg of V2L2-MD, 7C1, 7B1, 8C1 or 6D10. Blood was collected at […], and subsequently at 0 hour, 0.5 hour, 2 hour, 8 hour, 1 day, 3 days, 7 days, 11 days, 17 days, 23 days, 31 days, 41 days and 52 days after injection. After centrifugation, the plasma was used for analyzing antibody concentration using ELISA. For the ELISA experiment, synthetic PcrV was used to coat the wells of a 96-well plate. On the following day, after washing with PBST, blocking with 200 μL PBS-milk for an hour, and another wash with PBST, the plasma was added and incubated for an hour at 37° C. The plate was washed with 0.1% TBST for 6 times before 100 μL of Goat-anti-human Fc antibody-AP (1:3000 in PBS) was added to each well and incubated for an hour. After washing with 0.1% TBST for 6 times, 50 μL of pNPP was added to each well and color was developed for 10-20 minutes at 37° C. The signals were read by a microplate reader at 410 nm.
row,Molecule,half-lives relative to reference antibody V2L2-MD
1,B1,comparable to or longer than that of reference antibody V2L2-MD
2,B2,comparable to or longer than that of reference antibody V2L2-MD
3,B3,comparable to or longer than that of reference antibody V2L2-MD

# System: P. aeruginosa (PA103 strain)
# Test: Prophylactic mouse acute pneumonia model, organ burden
# Assay type: in vivo, BALB/c mice
# Settings: 10 mg/kg i.p. 24 hr before infection; 0.5*LD90; FIG. 8B
# Procedure: In a prophylactic model, 7-8 week old BALB/c mice (Vital River Laboratory) were administered with antibodies or PBS intraperitoneally (i.p.) 24 hr before infection, at 10 mg/kg mouse weight. To induce acute pneumonia, the BALB/c mice were intranasally inoculated with P. aeruginosa (PA103 strain) suspended in a 40 μl inoculum at half the lethal dose (0.5*LD90; 3×10^5 CFU). 24 hours post-infection, mice were euthanized, where the lungs, spleens and kidneys were extracted, homogenized and diluted before plating on agar to measure the viable bacteria units (in CFU), which represented the P. aeruginosa burden in the respective organ sample.
Molecule,"reduction of organ burden in the lung, spleen and kidney relative to HIV-10E8","reduction of organ burden in the lung, spleen and kidney relative to V2L2-MD"
B1,higher efficacy in reducing organ burden,comparable efficacy in reducing organ burden
B2,higher efficacy in reducing organ burden,comparable efficacy in reducing organ burden
B3,higher efficacy in reducing organ burden,comparable efficacy in reducing organ burden

# System: P. aeruginosa (O6-57/66 strain)
# Test: Prophylactic acute pneumonia model in immunodeficient mice, survival
# Assay type: in vivo, BALB/c mice
# Settings: cyclophosphamide-immunosuppressed mice; 3.2 to 5 mg/kg i.p. 24 h before infection; 1*LD90; 10 days
# Procedure: The ability of the optimized anti-PcrV antibodies 7C1, 7B1 and 8C1 to improve survival for acute pneumonia model in immunodeficient mice was evaluated in comparison to parental 13-42. HIV-10E8 was used as negative control. The acute pneumonia model in immunodeficient mice model was generated as described previously (DiGiandomenico et al., 2014, Sci. Transl. Med., 6: 262ra155).
# In a prophylactic model, to achieve immunosuppression, 7-8 week old BALB/c mice (Vital River Laboratory) were first administered 2 doses of 150 mg/kg of cyclophosphamide, at 4 days and 1 day before P. aeruginosa infection, to suppress white cell count. Antibodies were then administered intraperitoneally (i.p.) at 24 h before infection, at doses of 3.2 to 5 mg/kg mouse weight. To induce acute pneumonia, the BALB/c mice were intranasally inoculated with P. aeruginosa (O6-57/66 strain) suspended in a 40 μl inoculum at the lethal dose (1*LD90=[…]). Mouse survival was recorded for up to 10 days post-infection.
row,Molecule,survival improvement / protection relative to parental 13-42 antibody
1,B1,comparable or better protection than the parental 13-42 antibody
2,B2,comparable or better protection than the parental 13-42 antibody
3,B3,better survival improvement than the parental 13-42 antibody

# System: PcrV mutants (with mutations at position 225)
# Test: Binding to PcrV mutants with mutations at position 225
# Set-up: species or system Pseudomonas aeruginosa
# Settings: data not shown
# Procedure: To further illustrate the optimized antibodies could broadly neutralize P. aeruginosa strains, the abilities of these antibodies to bind various forms of PcrV mutants were tested. Briefly, 100 PcrV sequences were randomly selected from Genebank database. In contrast to the wild type sequence as shown in SEQ ID No: 71, 13% of the selected sequences contained R, G, or K at position 225 (as compared of S in the wild type sequence SEQ No: 71), which was the main mutation around the epitope of 7B1.
# These findings further illustrate that the optimized anti-PcrV antibodies could neutralize a broad spectrum of P. aeruginosa strains, which might express various forms of PcrV mutants.
row,Molecule,"binding to PcrV mutants with R, G or K at position 225"
1,B1,strongly bind these mutants
2,B2,strongly bind these mutants
3,B3,strongly bind these mutants

# System: PcrV
# Test: BIACORE binding to PcrV
# Set-up: species or system Pseudomonas aeruginosa
# Settings: data not shown
# Procedure: The association constant (ka), dissociation constant (kd) and the equilibrium dissociation constant (kD) for binding of optimized anti-PcrV mAb clones 7B1, 7C1, 8C1, 6D10 and reference antibody V2L2-MD to PcrV were tested by BIACORE (GE company).
row,Molecule,association and dissociation kinetics in PcrV binding (ka and kd values)
1,B1,comparable association and dissociation kinetics
2,B2,comparable association and dissociation kinetics
3,B3,comparable association and dissociation kinetics
